Experimental findings from the supplement of paper PMC9170038 are described below.

For this data set, the system named is MS2 coat protein. Briefly: apparent KD of MS2 coat protein; designed switch direction (-1 OFF switch, 1 ON switch): 1; higher = weaker reporter binding. The method, boiled down:
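SNAP-549-labelled MS2 coat protein was titrated, doubling from 0.7 or 1.5 nM to 3 µM, over designed RNA switches transcribed on Illumina chips by stalled E. coli RNA polymerase. Runs were done without input, with 200 uM small-molecule ligand, or with an oligonucleotide input. Apparent KD is the per-design median over clusters of curve-fitted normalised fluorescence.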

The mark [1] stands for this setting: input ligand: microRNA oligo, concentration not stated.
Setting [2] is: Eterna round: R95, input ligand: FMN 200 uM.
The mark [3] stands for this setting: Eterna round: R95, input ligand: microRNA oligo, concentration not stated.
The mark [4] stands for this setting: Eterna round: R95, input ligand: none.

As for “ACAUGAGAGAUAGGAUAUUUUGUACCUACAUGUGACAUGAGGAUCACCCAUGUGGUAAGUAUGAGAAAGAAGGAUCAGAUAUGU [Equivalance 52 - Jieux - Same State NG 2] (Eterna round: R96, puzzle: Same State NG 2)”, the “apparent KD of MS2 coat protein” value runs as follows: (input ligand: FMN 200 uM) 26.3 nM; under setting [1], 63.7 nM; (input ligand: none) 79.8 nM.
In the same order, the values of “ACAUGAGAGUCAGGAUAUAUUGUACCUACAUGUGACAUGAGGAUCACCCAUGUGGUAAGUAUGACAUAGAAGGGAUAGAUAUGU [Equivalance 85 - Jieux - Same State NG 2] (Eterna round: R96, puzzle: Same State NG 2)” are 62.7 nM, 60.4 nM and 79.2 nM.
On to “ACAUGAGAGUUAGGAUAUCUUGUACCUACAUGUGACAUGAGGAUCACCCAUGUGGUAAGUAUGAGGGAGAAGGAACAGAUAUGU [Equivalence 43 - Jieux - Same State NG 2] (Eterna round: R96, puzzle: Same State NG 2)”, for which the “apparent KD of MS2 coat protein” value under setting [1] was 27.3 nM.
With “ACAUGAGAUAGAGGAUAUAUUGUACCUACAUGUGACAUGAGGAUCACCCAUGUGGUAAGUAUGACAUAGAAGGCUAAGAUAUGU [Equivalance 82 - Jieux - Same State NG 2] (Eterna round: R96, puzzle: Same State NG 2)”, the “apparent KD of MS2 coat protein” value (input ligand: FMN 200 uM) amounted to 28.7 nM, the “apparent KD of MS2 coat protein” value under setting [1] was found to be 55.6 nM and the “apparent KD of MS2 coat protein” value (input ligand: none) was 73.9 nM.
The like results for “ACAUGAGAUUGAGGAUAUAUAGUACCUACAUGUGACAUGAGGAUCACCCAUGUGGUAAGUAUGACAUAGAAGGCAAAGAUAUGU [Equivalance 99 - Jieux - Same State NG 2] (Eterna round: R96, puzzle: Same State NG 2)” were, in that order, 35 nM, 37.6 nM and 50.6 nM.
In the same order, the values of “ACAUGAGGAUCACCCAUGUAUGCUCAGGAAACUGUGCAUCAUGAGGAUAUGGAUCCUAAUUGGAUCCAGAAGGCAUGUAUUAUU [Fiskers NG3ss - 28] (Eterna round: R96, puzzle: Same State NG 3)” are 699 nM, 39.1 nM and 45 nM.
Turning to “ACAUUUAGCUCGUGCACAUGAGGAUCACCCAUGUUCGGUUCACAGGAUAUCUAGUCAAACGGAUUGGAGAAGGGUGGCAGGAGC [Gelegees] (Eterna round: R96, puzzle: Same State NG 3)”, the “apparent KD of MS2 coat protein” value worked out at 35.7 nM (input ligand: FMN 200 uM), 128 nM under setting [1] and 215 nM (input ligand: none).
Regarding “ACCAAUCCAAUAAAACAAGCGUGCUCGUCACAUGAGGAUCACCCAUGUUUAAGCGCUGUUCCUAAUUCCUCAGCGCC [Isoreder] (puzzle: Sensor for hsa-mir-208a)”, the “apparent KD of MS2 coat protein” value was determined as 182 nM under setting [2], 28.8 nM under setting [3] and 168 nM under setting [4].
For “ACCCAAAGUAUAUGGGAACAAGCUUUUUAACAUGAGGAUCACCCAUGUGCUCGUCUUAUAAGCAGUCGAAAGACUGC [Sensor 100 - 7] (puzzle: Sensor for hsa-mir-208a)”, the “apparent KD of MS2 coat protein” value reads like this: under setting [2], 65.1 nM; under setting [4], 69 nM.
Consider “ACCCAAGGUAUAUGGGAACAAGCUUUUUAACAUGAGGAUCACCCAUGUACUCGUCUUAUAAGCAGUCGAAAGACUGC [Sensor 100 - 6] (puzzle: Sensor for hsa-mir-208a)”, for which the “apparent KD of MS2 coat protein” value came to 619 nM under setting [2], 16.1 nM under setting [3] and 831 nM under setting [4].
For “ACCUUGUGGGUAGGAUAUUUAGGAUAUGCGGAAGACUAAGUCUGUAGGUCACCUAACGCAGAAGGAGAGAAGGACCCUUCAGCA [pwkr ssNG2 2FMN + F9.31] (Eterna round: R96, puzzle: Same State NG 2)”, the “apparent KD of MS2 coat protein” value (input ligand: FMN 200 uM) was 109 nM, the “apparent KD of MS2 coat protein” value under setting [1] came out at 3.66 nM and the “apparent KD of MS2 coat protein” value (input ligand: none) is 4.74 nM.
